Patent publication US20230127047A1, “SELECTIVE GIP RECEPTOR AGONISTS COMPRISING A CHELATING MOIETY FOR IMAGING AND THERAPY PURPOSES” (ANTAROS MEDICAL AB, priority 2020, published 2023)
Where no end group is shown, it is not given here. [ ]: non-standard residue; d: D form. The star is where a group is joined. DO3A(CH2CH2SO2CH2CH2) = O=C(O)CN1CCN(CCS(=O)(=O)CC*)CCN(CC(=O)O)CCN(CC(=O)O)CC1; DOTA = O=C(O)CN1CCN(CC(=O)O)CCN(CC(=O)*)CCN(CC(=O)O)CC1; Aib = CC(C)(N)C(=O)O

T1: human GIP receptor (human, UniProt P48546 22-466)
T1 sequence (looked up): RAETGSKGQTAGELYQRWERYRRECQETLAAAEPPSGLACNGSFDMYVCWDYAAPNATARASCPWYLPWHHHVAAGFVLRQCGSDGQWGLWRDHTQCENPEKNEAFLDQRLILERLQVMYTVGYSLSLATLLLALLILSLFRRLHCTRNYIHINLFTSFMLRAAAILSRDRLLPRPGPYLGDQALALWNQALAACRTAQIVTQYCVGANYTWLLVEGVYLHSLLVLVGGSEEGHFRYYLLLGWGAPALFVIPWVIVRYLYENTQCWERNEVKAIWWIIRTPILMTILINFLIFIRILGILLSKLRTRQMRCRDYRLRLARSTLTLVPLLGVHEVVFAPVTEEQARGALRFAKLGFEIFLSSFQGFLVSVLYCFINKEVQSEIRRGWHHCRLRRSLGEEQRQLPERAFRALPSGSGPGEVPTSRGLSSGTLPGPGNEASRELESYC


How the values were obtained:
[1] = target: T1, human GIP receptor; assay: cell-based or functional assay
[2] = target: human glucagon receptor (human, UniProt P47871 26-477); assay: cell-based or functional assay
[3] = target: human GLP-1 receptor (human, UniProt P43220 24-463); assay: cell-based or functional assay
[4] = target: T1, human GIP receptor; assay: [125I]GIP displacement IC50, reference GIP(1-30) (SEQ ID NO: 2)
[5] = target: T1, human GIP receptor; assay: [125I]GIP displacement IC50, reference native GIP (SEQ ID NO: 1)
[6] = target: T1, human GIP receptor; assay: [125I]GIP displacement, SPA beads with hGIPR HEK-293 membranes

Chain of human glucagon receptor (P47871 26-477): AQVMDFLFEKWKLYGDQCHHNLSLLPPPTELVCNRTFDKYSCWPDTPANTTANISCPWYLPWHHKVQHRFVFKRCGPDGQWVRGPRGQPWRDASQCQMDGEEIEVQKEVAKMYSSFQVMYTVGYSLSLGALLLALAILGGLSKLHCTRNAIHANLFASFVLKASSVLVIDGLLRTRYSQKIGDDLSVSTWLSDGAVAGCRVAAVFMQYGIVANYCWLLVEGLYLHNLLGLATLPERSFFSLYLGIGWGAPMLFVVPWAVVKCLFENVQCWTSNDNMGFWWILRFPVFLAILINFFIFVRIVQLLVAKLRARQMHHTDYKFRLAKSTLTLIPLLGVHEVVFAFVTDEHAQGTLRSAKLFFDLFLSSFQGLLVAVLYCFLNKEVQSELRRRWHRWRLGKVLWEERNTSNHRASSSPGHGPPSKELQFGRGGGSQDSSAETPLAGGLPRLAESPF

| Molecule | EC50 hGIP R, cAMP formation (HTRF), 96-well format [1] [nM] | EC50 hGIP R, cAMP formation (HTRF), 384-well format [1] [nM] | EC50 hGCGR, cAMP formation (HTRF), 96-well format [2] [nM] | EC50 hGLP-1 R, cAMP formation (HTRF), 96-well format [3] [nM] | fold improvement of binding affinity against GIP(1-30) [4] [fold] | fold improvement of binding affinity against native GIP [5] [fold] | IC50 [6] [nM] | EC50 hGCGR, cAMP formation (HTRF), 384-well format [2] [nM] | EC50 hGLP-1 R, cAMP formation (HTRF), 384-well format [3] [nM] |
| --- | --- | --- | --- | --- | --- | --- | --- | --- | --- |
| hGlucagon (from UniProt P01275 53-81) (ligand) | > 10 | > 10 |  |  |  |  |  |  |  |
| Y[Aib]EGTFISDLSIALDRIHQEEFIEWLLAGGK(DOTA)-NH2 [SEQ ID NO: 3 (GIP(1-30) analog with K(DOTA) at position 31, unloaded)] | 0.00113 |  | > 10 | > 10 |  |  |  |  |  |
| YAEGTFISDYSIAMDKIHQQDFVNWLLAQK-NH2 (ligand) [GIP(1-30) amide, SEQ ID NO: 2] |  |  | > 10 | > 10 |  |  |  |  |  |
| H-Y[Aib]EGTFISDLSIALDRIHQEEFIEWLLAGGK(DOTA)-NH2 (also: Ga3+ complexed in DOTA on Lys31, also called Ga-S02-GIP-T4) [SEQ ID NO: 4 (GIP(1-30) analog with K(DOTA(Ga)) at position 31)] | 0.00109 |  | > 10 | > 10 | ~5 | ~12 | 0.25 |  |  |
| Y[Aib]EGTFISDLSIALDRIHQEEFIQWLLAGGC(DO3A(CH2CH2SO2CH2CH2))-NH2 (Printed: Y-Aib-EGTFISDLSIALDRIHQEEFIQWLLAGGC(VS-DO3A)-NH2) [SEQ ID NO: 5 (GIP(1-30) analog with C(VS-DO3A) at position 31, unloaded)] |  | 0.00022 |  |  | ~5 | ~12 | 0.22 | > 10 | > 10 |
| YAEGTFISDYSIAMDKIHQQDFVNWLLAQKGKKNDWKHNITQ-OH (ligand) [GIP (glucose-dependent insulinotropic polypeptide), SEQ ID NO: 1] |  |  | > 10 |  |  |  |  | > 10 |  |
